Columns and labels:
[1] = molecular target: T1, GST (control, expressed alone without a PDZ domain) (UniProt P08515 1-218 = GST); experiment: affinity pull-down from clarified E. coli lysate on PSD-95 PDZ2 resin, wash, elution with free SIESDV peptide (400 ug/ml), SDS-PAGE with GelCode Blue
T1 construct: also called Glutathione S-Transferase

[2] = molecular target: T1, GST (control, expressed alone without a …); experiment: affinity chromatography on 1× nNOS PDZ-β-hairpin resin, SDS-PAGE
[3] = molecular target: T2, MBP (control, expressed alone without a PDZ domain) (UniProt P0AEX9 27-392 = MBP); experiment: as above
[4] = molecular target: T3, HaloTag-PDZ1+PDZ2 fusion protein (residues 61 to 249 of Mus musculus PSD-95) (Mus musculus, UniProt Q62108 61-249); experiment: affinity chromatography on HaloTag-PDZ1+PDZ2 resin, SIESDV peptide elution, SDS-PAGE
T3 construct: range 61-249; also called PSD-95 PDZ1-PDZ2; not shown: HaloTag

[5] = molecular target: T2, MBP (control, expressed alone without a …); experiment: affinity chromatography on 2× nNOS PDZ-β-hairpin resin, SDS-PAGE
[6] = molecular target: T1, GST (control, expressed alone without a …); experiment: affinity chromatography on … peptide resin, SDS-PAGE
[7] = molecular target: T2, MBP (control, expressed alone without a …); experiment: as above

T1 sequence (P08515 whole entry, the tested form may be a part): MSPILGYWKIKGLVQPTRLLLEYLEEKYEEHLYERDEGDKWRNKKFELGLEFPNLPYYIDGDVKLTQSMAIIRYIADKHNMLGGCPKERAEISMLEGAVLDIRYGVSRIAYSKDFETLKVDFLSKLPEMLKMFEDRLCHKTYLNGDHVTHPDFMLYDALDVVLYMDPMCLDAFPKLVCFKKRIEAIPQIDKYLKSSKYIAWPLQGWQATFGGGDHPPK

B1: PDZ2 domain of PSD-95 (other, UniProt Q62108 160-246, looked up)
chain: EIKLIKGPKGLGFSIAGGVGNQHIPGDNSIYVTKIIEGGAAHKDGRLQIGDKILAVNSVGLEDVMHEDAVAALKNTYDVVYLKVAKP
notes: domain: PDZ2; Species (Mus musculus) is stated only for the PDZ1+PDZ2 construct; also called PSD-95 PDZ2
B1: no binding [1].

B2: nNOS PDZ domain (AA 11-129 of Mus musculus nNOS) (other, UniProt Q9Z0J4 11-129, looked up)
chain: IQPNVISVRLFKRKVGGLGFLVKERVSKPPVIISDLIRGGAAEQSGLIQAGDIILAVNDRPLVDLSYDSALEVLRGIASETHVVLILRGPEGFTTHLETTFTGDGTPKTIRVTQPLGTP
notes: range 11-129; also called 1× nNOS PDZ domain; 1× nNOS PDZ-β-hairpin domain
B2: no binding [2]; no binding [3].

B3: cypin (guanine deaminase, Homo sapiens: AA 1-454) (other, UniProt Q9Y2T3 1-454, looked up)
chain: MCAAQMPPLAHIFRGTFVHSTWTCPMEVLRDHLLGVSDSGKIVFLEEASQQEKLAKEWCFKPCEIRELSHHEFFMPGLVDTHIHASQYSFAGSSIDLPLLEWLTKYTFPAEHRFQNIDFAEEVYTRVVRRTLKNGTTTACYFATIHTDSSLLLADITDKFGQRAFVGKVCMDLNDTFPEYKETTEESIKETERFVSEMLQKNYSRVKPIVTPRFSLSCSETLMGELGNIAKTRDLHIQSHISENRDEVEAVKNLYPSYKNYTSVYDKNNLLTNKTVMAHGCYLSAEELNVFHERGASIAHCPNSNLSLSSGFLNVLEVLKHEVKIGLGTDVAGGYSYSMLDAIRRAVMVSNILLINKVNEKSLTLKEVFRLATLGGSQALGLDGEIGNFEVGKEFDAILINPKASDSPIDLFYGDFFGDISEAVIQKFLYLGDDRNIEEVYVGGKQVVPFSSSV
notes: range 1-454; also called untagged cypin
B3: binds [4].

B4: MBP-cypin (other, Homo sapiens, UniProt Q9Y2T3 1-454, looked up, not shown: large carriers)
chain: MCAAQMPPLAHIFRGTFVHSTWTCPMEVLRDHLLGVSDSGKIVFLEEASQQEKLAKEWCFKPCEIRELSHHEFFMPGLVDTHIHASQYSFAGSSIDLPLLEWLTKYTFPAEHRFQNIDFAEEVYTRVVRRTLKNGTTTACYFATIHTDSSLLLADITDKFGQRAFVGKVCMDLNDTFPEYKETTEESIKETERFVSEMLQKNYSRVKPIVTPRFSLSCSETLMGELGNIAKTRDLHIQSHISENRDEVEAVKNLYPSYKNYTSVYDKNNLLTNKTVMAHGCYLSAEELNVFHERGASIAHCPNSNLSLSSGFLNVLEVLKHEVKIGLGTDVAGGYSYSMLDAIRRAVMVSNILLINKVNEKSLTLKEVFRLATLGGSQALGLDGEIGNFEVGKEFDAILINPKASDSPIDLFYGDFFGDISEAVIQKFLYLGDDRNIEEVYVGGKQVVPFSSSV
notes: range 1-454; also called cypin fused to an N-terminal MBP
B4: binds [4].

B5: 2× nNOS PDZ domain fusion protein that contains a BH after each nNOS PDZ domain (other)
chain: QPNVISVRLFKRKVGGLGFLVKERVSKPPVIISDLIRGGAAEQSGLIQAGDIILAVNDRPLVDLSYDSALEVLRGIASETHVVLILRGPEGFTTHLETTFTGDGTPKTIRVTQPLGTPTQPNVISVRLFKRKVGGLGFLVKERVSKPPVIISDLIRGGAAEQSGLIQAGDIILAVNDRPLVDLSYDSALEVLRGIASETHVVLILRGPEGFTTHLETTFTGDGTPKTIRVTQPLGTPT
notes: domain: nNOS PDZ domain with β-Hairpin; also called nNOS-BH-nNOS-BH; 2× nNOS PDZ-β-hairpin domains
B5: no binding [5].

GAGSSIESDV (also called GluN2B ligand-NHS-Agarose) [NR2B (GluN2B) peptide ligand GAGSSIESDV]: no binding [6]; no binding [7].

— patent publication US20140329706A1 (CALIFORNIA INSTITUTE OF TECHNOLOGY, published 2014)
